This note sets out measurements from US20140087995A1 (published 2014).

The assay concerns the target T1, human amylin receptor (human, UniProt P30988 25-474; O60896 24-148, limits assumed).
T1 construct: whole, on cells; Used as cell membranes prepared from the Amylin 3(a)/CRE-luc BHK cells (Assay V); also called hAmylin-R; hAmylinR
T1 sequence (looked up) 1: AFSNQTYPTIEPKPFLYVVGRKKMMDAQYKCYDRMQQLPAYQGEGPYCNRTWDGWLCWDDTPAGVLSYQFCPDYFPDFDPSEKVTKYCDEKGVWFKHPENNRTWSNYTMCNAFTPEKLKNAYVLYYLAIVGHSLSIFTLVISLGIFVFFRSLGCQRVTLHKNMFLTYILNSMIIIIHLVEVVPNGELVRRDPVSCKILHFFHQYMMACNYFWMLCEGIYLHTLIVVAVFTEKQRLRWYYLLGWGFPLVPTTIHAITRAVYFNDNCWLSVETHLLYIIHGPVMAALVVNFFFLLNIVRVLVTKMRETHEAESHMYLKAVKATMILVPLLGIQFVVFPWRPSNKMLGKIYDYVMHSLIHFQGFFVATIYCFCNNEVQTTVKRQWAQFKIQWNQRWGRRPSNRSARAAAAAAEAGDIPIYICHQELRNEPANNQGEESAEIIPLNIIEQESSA
T1 sequence (looked up) 2: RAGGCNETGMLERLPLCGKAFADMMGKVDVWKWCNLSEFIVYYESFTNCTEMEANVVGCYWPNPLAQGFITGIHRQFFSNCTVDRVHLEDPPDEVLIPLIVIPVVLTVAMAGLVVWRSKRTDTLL
Kind of assay: SPA competition vs 125I-rat amylin, membranes of amylin 3(a) receptor BHK cells (Assay V). The procedure, abridged:
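Cell membranes were prepared by homogenisation in Na-HEPES/EDTA buffer, pH 7.4, and stored at −80° C. They were then coupled to SPA beads at 35 ng/μL final and exposed to compounds in assay buffer containing CaCl2, MgCl₂, OA and Tween20. After 120 min at 25° C, plates were counted and IC₅₀ derived.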

Usually IC50 stands for the concentration that gives 50% inhibition.

Numbered stars: 1 amine (or outer) side, 2 acyl side, 3 side chain; on linkers, the order of the positions; unused ones are H or OH. Bridge positions count the residues as written; N and C are the ends. Side chains are listed from the residue outwards. Ends that are not written are not given here. * marks the point of attachment. C20 diacid = O=C(O)CCCCCCCCCCCCCCCCCCC(=O)*; γGlu = O=C(O)[C@H](CCC(=O)[*:2])N[*:1]; AEEA = NCCOCCOCC(=O)O

B1: N^-1-[(4S)-4-carboxy-4-(19-carboxynonadecanoylamino)butanoyl]-Gly[Arg1,Arg17,Pro21,Pro27]-h-amylin (peptide)
peptide: {C20 diacid-γGlu}-GRCNTATCATQRLANFLRHSSPNFGAIPSSTNVGSNTY-NH2
modifications: disulfide 3-8
SMILES: CC[C@H](C)[C@H](NC(=O)[C@H](C)NC(=O)CNC(=O)[C@H](Cc1ccccc1)NC(=O)[C@H](CC(N)=O)NC(=O)[C@@H]1CCCN1C(=O)[C@H](CO)NC(=O)[C@H](CO)NC(=O)[C@H](Cc1c[nH]cn1)NC(=O)[C@H](CCCNC(=N)N)NC(=O)[C@H](CC(C)C)NC(=O)[C@H](Cc1ccccc1)NC(=O)[C@H](CC(N)=O)NC(=O)[C@H](C)NC(=O)[C@H](CC(C)C)NC(=O)[C@H](CCCNC(=N)N)NC(=O)[C@H](CCC(N)=O)NC(=O)[C@@H](NC(=O)[C@H](C)NC(=O)[C@@H]1CSSC[C@H](NC(=O)[C@H](CCCNC(=N)N)NC(=O)CNC(=O)CC[C@H](NC(=O)CCCCCCCCCCCCCCCCCCC(=O)O)C(=O)O)C(=O)N[C@@H](CC(N)=O)C(=O)N[C@@H]([C@@H](C)O)C(=O)N[C@@H](C)C(=O)N[C@@H]([C@@H](C)O)C(=O)N1)[C@@H](C)O)C(=O)N1CCC[C@H]1C(=O)N[C@@H](CO)C(=O)N[C@@H](CO)C(=O)N[C@H](C(=O)N[C@@H](CC(N)=O)C(=O)N[C@H](C(=O)NCC(=O)N[C@@H](CO)C(=O)N[C@@H](CC(N)=O)C(=O)N[C@H](C(=O)N[C@@H](Cc1ccc(O)cc1)C(N)=O)[C@@H](C)O)C(C)C)[C@@H](C)O
notes: also called compound 46
In turn, B1 returned an IC50 of 0.195 nM.

B2: N^-1-[(4S)-4-carboxy-4-(19-carboxynonadecanoylamino)butanoyl]-Gly[Arg1,His14,Arg17,Pro21,Pro27,Pro34]-h-amylin (peptide)
peptide: {C20 diacid-γGlu}-GRCNTATCATQRLAHFLRHSSPNFGAIPSSTNVGPNTY-NH2
modifications: disulfide 3-8
SMILES: CC[C@H](C)[C@H](NC(=O)[C@H](C)NC(=O)CNC(=O)[C@H](Cc1ccccc1)NC(=O)[C@H](CC(N)=O)NC(=O)[C@@H]1CCCN1C(=O)[C@H](CO)NC(=O)[C@H](CO)NC(=O)[C@H](Cc1c[nH]cn1)NC(=O)[C@H](CCCNC(=N)N)NC(=O)[C@H](CC(C)C)NC(=O)[C@H](Cc1ccccc1)NC(=O)[C@H](Cc1c[nH]cn1)NC(=O)[C@H](C)NC(=O)[C@H](CC(C)C)NC(=O)[C@H](CCCNC(=N)N)NC(=O)[C@H](CCC(N)=O)NC(=O)[C@@H](NC(=O)[C@H](C)NC(=O)[C@@H]1CSSC[C@H](NC(=O)[C@H](CCCNC(=N)N)NC(=O)CNC(=O)CC[C@H](NC(=O)CCCCCCCCCCCCCCCCCCC(=O)O)C(=O)O)C(=O)N[C@@H](CC(N)=O)C(=O)N[C@@H]([C@@H](C)O)C(=O)N[C@@H](C)C(=O)N[C@@H]([C@@H](C)O)C(=O)N1)[C@@H](C)O)C(=O)N1CCC[C@H]1C(=O)N[C@@H](CO)C(=O)N[C@@H](CO)C(=O)N[C@H](C(=O)N[C@@H](CC(N)=O)C(=O)N[C@H](C(=O)NCC(=O)N1CCC[C@H]1C(=O)N[C@@H](CC(N)=O)C(=O)N[C@H](C(=O)N[C@@H](Cc1ccc(O)cc1)C(N)=O)[C@@H](C)O)C(C)C)[C@@H](C)O
On to B2, for which the IC50 was found to be 0.217 nM.

As for {C20 diacid-γGlu}-GRCNTATCATQRLAAFLRHSSPNFGAIPSSTNVGPNTY-NH2 (disulfide 3-8), the IC50 turned out to be 0.114 nM.

B3: N^-1-[(4S)-4-carboxy-4-(19-carboxynonadecanoylamino)butanoyl]-Gly[Arg1,Ala14,Arg17,Pro21,Pro27,His34]-h-amylin (peptide)
peptide: {C20 diacid-γGlu}-GRCNTATCATQRLAAFLRHSSPNFGAIPSSTNVGHNTY-NH2
modifications: disulfide 3-8
SMILES: CC[C@H](C)[C@H](NC(=O)[C@H](C)NC(=O)CNC(=O)[C@H](Cc1ccccc1)NC(=O)[C@H](CC(N)=O)NC(=O)[C@@H]1CCCN1C(=O)[C@H](CO)NC(=O)[C@H](CO)NC(=O)[C@H](Cc1c[nH]cn1)NC(=O)[C@H](CCCNC(=N)N)NC(=O)[C@H](CC(C)C)NC(=O)[C@H](Cc1ccccc1)NC(=O)[C@H](C)NC(=O)[C@H](C)NC(=O)[C@H](CC(C)C)NC(=O)[C@H](CCCNC(=N)N)NC(=O)[C@H](CCC(N)=O)NC(=O)[C@@H](NC(=O)[C@H](C)NC(=O)[C@@H]1CSSC[C@H](NC(=O)[C@H](CCCNC(=N)N)NC(=O)CNC(=O)CC[C@H](NC(=O)CCCCCCCCCCCCCCCCCCC(=O)O)C(=O)O)C(=O)N[C@@H](CC(N)=O)C(=O)N[C@@H]([C@@H](C)O)C(=O)N[C@@H](C)C(=O)N[C@@H]([C@@H](C)O)C(=O)N1)[C@@H](C)O)C(=O)N1CCC[C@H]1C(=O)N[C@@H](CO)C(=O)N[C@@H](CO)C(=O)N[C@H](C(=O)N[C@@H](CC(N)=O)C(=O)N[C@H](C(=O)NCC(=O)N[C@@H](Cc1c[nH]cn1)C(=O)N[C@@H](CC(N)=O)C(=O)N[C@H](C(=O)N[C@@H](Cc1ccc(O)cc1)C(N)=O)[C@@H](C)O)C(C)C)[C@@H](C)O
The molecule B3 had an IC50 of 0.426 nM.

B4: N^ε-[(4S)-4-carboxy-4-(19-carboxynonadecanoylamino)butanoyl]Lys[Arg1,Arg17,Pro21,Pro27,His35]-h-amylin (peptide)
peptide: K([γGlu-C20 diacid])RCNTATCATQRLANFLRHSSPNFGAIPSSTNVGSHTY-NH2
modifications: disulfide 3-8; N-terminus assumed
SMILES: CC[C@H](C)[C@H](NC(=O)[C@H](C)NC(=O)CNC(=O)[C@H](Cc1ccccc1)NC(=O)[C@H](CC(N)=O)NC(=O)[C@@H]1CCCN1C(=O)[C@H](CO)NC(=O)[C@H](CO)NC(=O)[C@H](Cc1c[nH]cn1)NC(=O)[C@H](CCCNC(=N)N)NC(=O)[C@H](CC(C)C)NC(=O)[C@H](Cc1ccccc1)NC(=O)[C@H](CC(N)=O)NC(=O)[C@H](C)NC(=O)[C@H](CC(C)C)NC(=O)[C@H](CCCNC(=N)N)NC(=O)[C@H](CCC(N)=O)NC(=O)[C@@H](NC(=O)[C@H](C)NC(=O)[C@@H]1CSSC[C@H](NC(=O)[C@H](CCCNC(=N)N)NC(=O)[C@@H](N)CCCCNC(=O)CC[C@H](NC(=O)CCCCCCCCCCCCCCCCCCC(=O)O)C(=O)O)C(=O)N[C@@H](CC(N)=O)C(=O)N[C@@H]([C@@H](C)O)C(=O)N[C@@H](C)C(=O)N[C@@H]([C@@H](C)O)C(=O)N1)[C@@H](C)O)C(=O)N1CCC[C@H]1C(=O)N[C@@H](CO)C(=O)N[C@@H](CO)C(=O)N[C@H](C(=O)N[C@@H](CC(N)=O)C(=O)N[C@H](C(=O)NCC(=O)N[C@@H](CO)C(=O)N[C@@H](Cc1c[nH]cn1)C(=O)N[C@H](C(=O)N[C@@H](Cc1ccc(O)cc1)C(N)=O)[C@@H](C)O)C(C)C)[C@@H](C)O
notes: also called compound 44
B4 came in with an IC50 of 0.275 nM.

B5: N^ε-[2-[2-[2-[[(4S)-4-carboxy-4-(19-carboxynonadecanoylamino)butanoyl]amino]ethoxy]ethoxy]acetyl]Lys[Arg1,Arg17,Pro21,Pro27,His35]-h-amylin (peptide)
peptide: K([AEEA-γGlu-C20 diacid])RCNTATCATQRLANFLRHSSPNFGAIPSSTNVGSHTY-NH2
modifications: disulfide 3-8; N-terminus assumed
SMILES: CC[C@H](C)[C@H](NC(=O)[C@H](C)NC(=O)CNC(=O)[C@H](Cc1ccccc1)NC(=O)[C@H](CC(N)=O)NC(=O)[C@@H]1CCCN1C(=O)[C@H](CO)NC(=O)[C@H](CO)NC(=O)[C@H](Cc1c[nH]cn1)NC(=O)[C@H](CCCNC(=N)N)NC(=O)[C@H](CC(C)C)NC(=O)[C@H](Cc1ccccc1)NC(=O)[C@H](CC(N)=O)NC(=O)[C@H](C)NC(=O)[C@H](CC(C)C)NC(=O)[C@H](CCCNC(=N)N)NC(=O)[C@H](CCC(N)=O)NC(=O)[C@@H](NC(=O)[C@H](C)NC(=O)[C@@H]1CSSC[C@H](NC(=O)[C@H](CCCNC(=N)N)NC(=O)[C@@H](N)CCCCNC(=O)COCCOCCNC(=O)CC[C@H](NC(=O)CCCCCCCCCCCCCCCCCCC(=O)O)C(=O)O)C(=O)N[C@@H](CC(N)=O)C(=O)N[C@@H]([C@@H](C)O)C(=O)N[C@@H](C)C(=O)N[C@@H]([C@@H](C)O)C(=O)N1)[C@@H](C)O)C(=O)N1CCC[C@H]1C(=O)N[C@@H](CO)C(=O)N[C@@H](CO)C(=O)N[C@H](C(=O)N[C@@H](CC(N)=O)C(=O)N[C@H](C(=O)NCC(=O)N[C@@H](CO)C(=O)N[C@@H](Cc1c[nH]cn1)C(=O)N[C@H](C(=O)N[C@@H](Cc1ccc(O)cc1)C(N)=O)[C@@H](C)O)C(C)C)[C@@H](C)O
notes: also called compound 45
In turn, B5 had an IC50 of 0.552 nM.
